Seven molecules from PMC4505582 (The Journal of Biological Chemistry, 2015) can be followed below.

The labels stand for the following.
B1: F-ATPase subunit d (natural protein)
chain: not shown
notes: ATP synthase subunit d, mitochondrial, bovine; endogenous subunit of the peripheral stalk of the purified F-ATPase; source: purified from bovine mitochondrial membranes as part of the F-ATPase complex
B2: F-ATPase subunit f (natural protein, bovine, UniProt Q28851 1-88, looked up)
chain: MASVVPLKEKKLLEVKLGELPSWILMRDFTPSGIAGAFQRGYYRYYNKYVNVKKGSIAGLSMVLAAYVFLNYCRSYKELKHERLRKYH
notes: ATP synthase subunit f, mitochondrial, bovine; endogenous supernumerary membrane subunit of the purified F-ATPase; source: purified from bovine mitochondrial membranes as part of the F-ATPase complex
B7: F-ATPase subunit F6 (natural protein, bovine, UniProt P02721 33-108, looked up)
chain: NKELDPVQKLFVDKIREYRTKRQTSGGPVDAGPEYQQDLDRELFKLKQMYGKADMNTFPNFTFEDPKFEVVEKPQS
notes: ATP synthase coupling factor 6, mitochondrial, bovine; endogenous subunit of the peripheral stalk of the purified F-ATPase; printed length 76 amino acids; source: purified from bovine mitochondrial membranes as part of the F-ATPase complex

Holding throughout (conditions): both partners purified
The target in assay [1] is T1, F-ATPase subunit b (bovine, UniProt P13619 43-256).
T1 construct: ATP synthase subunit b, mitochondrial, bovine; endogenous subunit of the peripheral stalk of the purified F-ATPase; source: purified from bovine mitochondrial membranes as part of the F-ATPase complex
T1 sequence (looked up): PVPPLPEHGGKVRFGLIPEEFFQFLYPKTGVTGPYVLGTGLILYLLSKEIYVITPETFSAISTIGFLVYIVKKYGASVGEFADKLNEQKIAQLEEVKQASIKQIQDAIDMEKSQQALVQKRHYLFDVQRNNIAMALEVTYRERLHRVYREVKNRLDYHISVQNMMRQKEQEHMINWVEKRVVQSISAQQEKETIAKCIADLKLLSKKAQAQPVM
In words: cross-linking; purified monomeric bovine F-ATPase reacted with BS^3(d0/d12) at the same concentration and under the same conditions as DSS; tryptic digest, linked lysines identified by mass spectrometry.

The target in a further assay is T2, F-ATPase subunit g (bovine, UniProt Q28852 1-103).
T2 construct: ATP synthase subunit g, mitochondrial, bovine; endogenous supernumerary membrane subunit of the purified F-ATPase; source: purified from bovine mitochondrial membranes as part of the F-ATPase complex
T2 sequence (looked up): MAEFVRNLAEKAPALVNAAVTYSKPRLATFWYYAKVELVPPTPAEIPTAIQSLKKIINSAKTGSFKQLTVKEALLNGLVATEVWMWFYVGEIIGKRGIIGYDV
Described as above.

The assay “F-ATPase subunit f” deals with B2. Put plainly: cross-linking; purified monomeric bovine F-ATPase (2 μM, 1.16 mg/ml) in detergent and phospholipids reacted with 2 mM DSS(d0/d12), pH 8.0, 2 h; tryptic digest, cation exchange fractionation, linked lysines identified by mass spectrometry.
In assay [2] the target is T1, F-ATPase subunit b. The description is as above.
The target of assay [3] is B1. Described as above.
The assay “F-ATPase subunit F6” has as its target B7. The description is as above.
Assay [4] concerns the target T3, F-ATPase subunit 6.8PL (6.8-kDa proteolipid) (bovine, UniProt P14790 1-60).
T3 construct: 6.8 kDa mitochondrial proteolipid, bovine; endogenous supernumerary membrane subunit of the purified F-ATPase; source: purified from bovine mitochondrial membranes as part of the F-ATPase complex
The assay is described as above.

The target in a further assay is T4, F-ATPase α-subunit (bovine, UniProt P19483 44-553).
T4 construct: ATP synthase subunit alpha, mitochondrial, bovine; endogenous subunit of the F1 domain of the purified F-ATPase (three copies in the enzyme); also called subunit α; source: purified from bovine mitochondrial membranes as part of the F-ATPase complex
Described as above.

In assay [5] the target is T1, F-ATPase subunit b. Described as above. This is another data set of the same source.
Assay [6] deals with B1. Described as above. The source holds these as a separate data set.

T4 sequence (P19483 44-553): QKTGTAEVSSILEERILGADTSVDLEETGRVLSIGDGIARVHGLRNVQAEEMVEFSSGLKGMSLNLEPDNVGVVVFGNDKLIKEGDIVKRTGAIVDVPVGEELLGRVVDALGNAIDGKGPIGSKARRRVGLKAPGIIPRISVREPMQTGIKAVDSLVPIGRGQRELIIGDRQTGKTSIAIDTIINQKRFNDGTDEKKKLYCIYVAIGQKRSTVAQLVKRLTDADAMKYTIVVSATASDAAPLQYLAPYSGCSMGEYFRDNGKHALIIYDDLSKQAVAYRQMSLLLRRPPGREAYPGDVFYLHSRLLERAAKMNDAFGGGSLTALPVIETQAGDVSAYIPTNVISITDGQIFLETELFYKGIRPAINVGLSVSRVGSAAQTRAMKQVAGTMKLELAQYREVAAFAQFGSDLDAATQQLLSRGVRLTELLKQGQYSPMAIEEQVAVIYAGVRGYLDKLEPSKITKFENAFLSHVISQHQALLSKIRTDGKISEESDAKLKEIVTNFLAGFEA

As to B1, the binding result with F-ATPase subunit b [1] was “binds”.
With B2, the binding result with F-ATPase subunit g is reported as “binds”.

B3: F-ATPase subunit e (natural protein, bovine, UniProt Q00361 1-71, looked up)
chain: MVPPVQVSPLIKLGRYSALFLGMAYGAKRYNYLKPRAEEERRLAAEEKKKRDEQKRIERELAEAQEDTILK
notes: ATP synthase subunit e, mitochondrial, bovine; endogenous supernumerary membrane subunit of the purified F-ATPase; source: purified from bovine mitochondrial membranes as part of the F-ATPase complex
As for B3, in the assay with F-ATPase subunit f, the binding result is recorded as “binds”.

B4: F-ATPase subunit ATP8 (natural protein, bovine, UniProt P03929 1-66, looked up)
chain: MPQLDTSTWLTMILSMFLTLFIIFQLKVSKHNFYHNPELTPTKMLKQNTPWETKWTKIYLPLLLPL
notes: ATP synthase protein 8 (A6L), encoded in mitochondrial DNA, bovine; endogenous membrane subunit of the purified F-ATPase; C terminus at residue 66 as printed; also called A6L; source: purified from bovine mitochondrial membranes as part of the F-ATPase complex
With B4, the binding result with F-ATPase subunit b [2], in the assay with F-ATPase subunit d [3] and in the assay with F-ATPase subunit F6 was “binds” in each case.

B5: F-ATPase subunit DAPIT (diabetes-associated protein in insulin-sensitive tissues) (natural protein, bovine, UniProt Q3ZBI7 1-58, looked up)
chain: MAGPEADAQFHFTGIKKYFNSYTLTGRMNCVLATYGSIALIVLYFKLRSKKTPAVKAT
notes: DAPIT (diabetes-associated protein in insulin-sensitive tissues), bovine; endogenous supernumerary membrane subunit of the purified F-ATPase; source: purified from bovine mitochondrial membranes as part of the F-ATPase complex
With B5, the binding result in assay [4] is listed as “binds”.

B6: F-ATPase subunit oscp (natural protein, bovine, UniProt P13621 24-213, looked up)
chain: FAKLVRPPVQIYGIEGRYATALYSAASKQNKLEQVEKELLRVGQILKEPKMAASLLNPYVKRSVKVKSLSDMTAKEKFSPLTSNLINLLAENGRLTNTPAVISAFSTMMSVHRGEVPCTVTTASALDEATLTELKTVLKSFLSKGQVLKLEVKIDPSIMGGMIVRIGEKYVDMSAKTKIQKLSRAMREIL
notes: ATP synthase subunit O (oligomycin sensitivity conferral protein), mitochondrial, bovine; endogenous subunit of the peripheral stalk of the purified F-ATPase; source: purified from bovine mitochondrial membranes as part of the F-ATPase complex
For the molecule B6, in the assay with F-ATPase α-subunit, the binding result is “binds”.
B7: the binding result with F-ATPase subunit b [5] and with F-ATPase subunit d [6] was “binds” each time.
